According to patent US20050232933A1, “CMV-IE1 peptides and method of use” (priority 2003, published 2005):
Where two headings read alike, the source gives them in different places.

Key:
[1] = molecular target: HLA A*0201 molecule on the surface of T2 cells (human); settings: remark: other sources report otherwise
[2] = molecular target: HLA A*0201 molecule on the surface of T2 cells (human); test: T2 cell HLA-A2 stabilisation, 100 µM peptide for 18 h, BB7.2 flow cytometry
[3] = molecular target: HLA A*0201 molecule on the surface of T2 cells (human); test: T2 cell HLA-A2 stabilisation; fold over the mean of no peptide and HLA mismatch B7 peptide

Binder | Fold Increase [1] | peak channel [1] | peak channel [2] | Fold Increase [3]
TPRVTGGGAM (modifications not checked) [(-)control B7 T10M] | 1 fold | 232 |  | 
VLAELVKQI (modifications not checked) [IE1p81-89] |  |  | 495 | 2 fold
LLSEFCRVL (modifications not checked) [IE1p304-312] |  |  | 433 | 1.8 fold
